Test results: patent US11306156
“And” between values parts separate entries of the source, which are not always exact repeats. Equal entries are not always repeated.

How the values were obtained:
[1] = target: D3H44 light chain V133G_S176D_T178D_T180E; experiment: LCCA (co-expression, SPR tag read-out), L1:L2 DNA 1:3 normalised to 1:1; competing light chain m7
[2] = target: D3H44 light chain V133G_S176D_T178E_T180E; experiment: as above
[3] = target: D3H44 light chain Q124E_V133G_S176D_T178D_T180E; experiment: as above
[4] = target: D3H44 light chain Q124E_V133G_S176D_T178E_T180E; experiment: as above
[5] = target: D3H44 light chain V133G_S176D_T178D_T180E; experiment: LCCA (co-expression, SPR tag read-out), L1:L2 DNA 1:3 normalised to 1:1; competing light chain m8
[6] = target: D3H44 light chain V133G_Q160E_S176D_T180E; experiment: as above
[7] = target: D3H44 light chain V133G_S176D_T178E_T180E; experiment: as above
[8] = target: D3H44 light chain Q124E_V133G_S176D_T178D_T180E; experiment: as above
[9] = target: D3H44 light chain Q124E_V133G_S176D_T178E_T180E; experiment: as above
[10] = target: D3H44 light chain V133G_Q160E_S176D_T180E; experiment: LCCA (co-expression, SPR tag read-out), L1:L2 DNA 1:9 normalised to 1:1; competing light chain m8
[11] = target: D3H44 light chain Q124E_V133G_S176D_T178E_T180E; experiment: as above
[12] = target: D3H44 light chain P44F_S131K; experiment: LCCA, SPR tag readout, L1:L2 DNA 1:3 normalized to 1:1; competitor m19
[13] = target: D3H44 light chain Q38E_Q124E_Q160E_T180E; experiment: LCCA, SPR tag readout, L1:L2 DNA 1:3 normalized to 1:1; competitor m20
[14] = target: D3H44 light chain Q124E_Q160E_T180E_C214S; experiment: as above
[15] = target: D3H44 light chain P44F_S131K; experiment: LCCA, SPR tag readout, L1:L2 DNA 1:3 normalized to 1:1; competitor m22
[16] = target: D3H44 light chain Q124E_Q160E_T180E_C214S; experiment: LCCA, SPR tag readout, L1:L2 DNA 1:9 normalized to 1:1; competitor m20
[17] = target: D3H44 light chain P44F_S131K; experiment: LCCA, SPR tag readout, L1:L2 DNA 1:9 normalized to 1:1; competitor m22
[18] = target: tissue factor (TF) antigen (UniProt P13726); experiment: SPR (ProteOn XPR36), Fab captured on anti-penta-His surface, TF injected as analyte, 1:1 fit; marked * (estimated from a Fab that differs only in the L chain tag); reference wild-type D3H44 Fab
[19] = target: tissue factor (TF) antigen (UniProt P13726); experiment: SPR (ProteOn XPR36), Fab captured on anti-penta-His surface, TF injected as analyte, 1:1 fit; marked * (estimated from a Fab that differs only in the L chain tag)
[20] = target: D3H44 Fab heavy chain S186R, ABD2-His6 tagged; experiment: LCCA, SPR of light chain tags; L1:L2 DNA 1:3 normalized to 1:1; competing light chain m19
[21] = target: D3H44 Fab heavy chain L143E_K145T_Q179E, ABD2-His6 tagged; experiment: as above
[22] = target: D3H44 Fab heavy chain S186K, ABD2-His6 tagged; experiment: as above
[23] = target: D3H44 Fab heavy chain L143E_K145T_Q179D, ABD2-His6 tagged; experiment: as above
[24] = target: D3H44 light chain F116C_Q124R_T178R with N-terminal HA or FLAG tag; experiment: LCCA (SPR tag readout), L1:L2 DNA 1:3, normalized to 1:1; competing light chain m18
[25] = target: D3H44 light chain Q124E_Q160E_T180E with N-terminal HA or FLAG tag; experiment: LCCA (SPR tag readout), L1:L2 DNA 1:3, normalized to 1:1; competing light chain m17
[26] = target: D3H44 Fab heavy chain L124W_L143F_K145T_Q179E, ABD2-His6 tagged; experiment: LCCA, SPR of light chain tags; L1:L2 DNA 1:3 normalized to 1:1; competing light chain m14
[27] = target: D3H44 Fab heavy chain Q179R, ABD2-His6 tagged; experiment: LCCA, SPR of light chain tags; L1:L2 DNA 1:9 normalized to 1:1; competing light chain m16
[28] = target: D3H44 Fab heavy chain Q179K, ABD2-His6 tagged; experiment: as above
[29] = target: D3H44 Fab heavy chain L143E_K145T_Q179E, ABD2-His6 tagged; experiment: as above
[30] = target: D3H44 Fab heavy chain Q179R, ABD2-His6 tagged; experiment: LCCA, SPR of light chain tags; L1:L2 DNA 1:3 normalized to 1:1; competing light chain m16
[31] = target: D3H44 Fab heavy chain Q179K, ABD2-His6 tagged; experiment: as above
[32] = target: D3H44 Fab heavy chain L143E_K145T_Q179E, ABD2-His6 tagged; experiment: as above
[33] = target: tissue factor (TF) antigen (UniProt P13726); experiment: SPR (ProteOn XPR36), Fab captured on anti-penta-His surface, TF injected as analyte, 1:1 fit
[34] = target: tissue factor (TF) antigen (UniProt P13726); experiment: SPR (ProteOn XPR36), Fab captured on anti-penta-His surface, TF injected as analyte, 1:1 fit; reference wild-type D3H44 Fab
[35] = target: D3H44 light chain Q38R_Q124R_Q160K_T178R; experiment: LCCA, SPR tag readout, L1:L2 DNA 1:3 normalized to 1:1; competitor m19
[36] = target: D3H44 light chain Q38E_Q124E_Q160E_T180E; experiment: LCCA, SPR tag readout, L1:L2 DNA 1:3 normalized to 1:1; competitor m26
[37] = target: D3H44 light chain Q124R_T178R with N-terminal HA or FLAG tag; experiment: LCCA (SPR tag readout), L1:L2 DNA 1:3, normalized to 1:1; competing light chain m16
[38] = target: D3H44 light chain Q124E_V133D with N-terminal HA or FLAG tag; experiment: LCCA (SPR tag readout), L1:L2 DNA 1:9, normalized to 1:1; competing light chain m9
[39] = target: D3H44 light chain Q124R_T178R with N-terminal HA or FLAG tag; experiment: LCCA (SPR tag readout), L1:L2 DNA 1:9, normalized to 1:1; competing light chain m16
[40] = target: D3H44 light chain Q124E_V133D with N-terminal HA or FLAG tag; experiment: LCCA (SPR tag readout), L1:L2 DNA 1:3, normalized to 1:1; competing light chain m9

Substance: D3H44 Fab heavy chain L124E_K145T_Q179E
- H1L1:H1L2 normalized median ratio [1]: 5 parts of 100
- H1L1:H1L2 normalized median ratio [2]: 5 parts of 100
- H1L1:H1L2 normalized median ratio [3]: 4 parts of 100
- H1L1:H1L2 normalized median ratio [4]: 5 parts of 100
- H1L1:H1L2 normalized median ratio [5]: 4 parts of 100
- H1L1:H1L2 normalized median ratio [6]: 4 parts of 100
- H1L1:H1L2 normalized median ratio [7]: 3 parts of 100
- H1L1:H1L2 normalized median ratio [8]: 4 parts of 100
- H1L1:H1L2 normalized median ratio [9]: 3 parts of 100
- H1L1:H1L2 normalized median ratio [10]: 5 parts of 100
- H1L1:H1L2 normalized median ratio [11]: 3 parts of 100

Substance: D3H44 Fab heavy chain L45P_K145T_Q179E
- H1L1:H1L2 normalized median ratio [12]: 94%
- H1L1:H1L2 normalized median scalar value ln(r1/f1) [12]: 2.83
- H2L2:H2L1 normalized median ratio [12]: 94%
- H1L1:H1L2 normalized median ratio [13]: 6%
- H2L2:H2L1 normalized median ratio [13]: 6%
- H1L1:H1L2 normalized median ratio [14]: 4%
- H2L2:H2L1 normalized median ratio [14]: 4%
- H1L1:H1L2 normalized median ratio [15]: 96%
- H1L1:H1L2 normalized median scalar value ln(r1/f1) [15]: 3.19
- H2L2:H2L1 normalized median ratio [15]: 96%
- H1L1:H1L2 normalized median ratio [16]: 7%
- H2L2:H2L1 normalized median ratio [16]: 7%
- H1L1:H1L2 normalized median ratio [17]: 93%
- H1L1:H1L2 normalized median scalar value ln(r1/f1) [17]: 2.54
- H2L2:H2L1 normalized median ratio [17]: 93%

Substance: D3H44 H1L1 Fab heterodimer, H1 L124E_L143E_K145T, L1 Q124K_V133G_S176R_T178R
- Change in median KD of h1l1 Fab heterodimer compared to wild type (-(log(KD design)-log(KD wt))) (log(KD) difference) [18]: -0.07
- Kd [19]: 0.18 nM

Substance: D3H44 light chain Q124R_T178K, HA or FLAG tagged
- H2L2:H2L1 normalized median ratio [20]: 3%
- H1L1:H1L2 normalized median ratio [21]: 84%
- H1L1:H1L2 normalized median scalar value ln(r1/f1) [21]: 1.69
- H2L2:H2L1 normalized median ratio [22]: 3%
- H1L1:H1L2 normalized median ratio [23]: 84%
- H1L1:H1L2 normalized median scalar value ln(r1/f1) [23]: 1.63

Substance: D3H44 Fab heavy chain A139C_L143E_K145T_Q179E with C-terminal ABD2-His6 tag
- H1L1:H1L2 normalized median ratio [24]: 89%
- H1L1:H1L2 normalized median scalar value ln(r1/f1) [24]: 2.08
- H1L1:H1L2 normalized median ratio [25]: 11%

Substance: D3H44 light chain Q124E_V133W_S176T_T178L_T180E, HA or FLAG tagged
- H2L2:H2L1 normalized median ratio [26]: 31%

Substance: D3H44 light chain Q124E_T178E, HA or FLAG tagged
- H2L2:H2L1 normalized median ratio [27]: 85%
- H2L2:H2L1 normalized median ratio [28]: 89%
- H1L1:H1L2 normalized median ratio [29]: 15%
- H2L2:H2L1 normalized median ratio [30]: 97%
- H2L2:H2L1 normalized median ratio [31]: 96%
- H1L1:H1L2 normalized median ratio [32]: 14%

Substance: D3H44 H1L1 Fab heterodimer, H1 L124E_L143E_K145T, L1 Q124K_V133G_Q160K_S176R
- Kd [33]: 0.2 nM
- Change in median KD of h1l1 Fab heterodimer compared to wild type (-(log(KD design)-log(KD wt))) (log(KD) difference) [34]: -0.12

Substance: D3H44 H1L1 Fab heterodimer, H1 L124E_L143E_K145M, L1 Q124K_V133G_Q160K_S176R
- Kd [33]: 0.28 nM
- Change in median KD of h1l1 Fab heterodimer compared to wild type (-(log(KD design)-log(KD wt))) (log(KD) difference) [34]: -0.26

Substance: D3H44 Fab heavy chain Q39E_L143E_K145T_Q179E
- H1L1:H1L2 normalized median ratio [35]: 97%
- H1L1:H1L2 normalized median scalar value ln(r1/f1) [35]: 3.58 and 1.58
- H1L1:H1L2 normalized median ratio [36]: 3%

Substance: D3H44 Fab heavy chain L143K with C-terminal ABD2-His6 tag
- H2L2:H2L1 normalized median ratio [37]: 8%
- H2L2:H2L1 normalized median ratio [38]: 92%
- H2L2:H2L1 normalized median ratio [39]: 8%
- H2L2:H2L1 normalized median ratio [40]: 92%

Substance: D3H44 Fab heavy chain L124R_S186K
- H2L2:H2L1 normalized median ratio [1]: 91 parts of 100
- H2L2:H2L1 normalized median ratio [3]: 92 parts of 100
- H2L2:H2L1 normalized median ratio [5]: 90 parts of 100
- H2L2:H2L1 normalized median ratio [8]: 91 parts of 100

Substance: D3H44 Fab heavy chain L124R_Q179K
- H2L2:H2L1 normalized median ratio [2]: 93 parts of 100
- H2L2:H2L1 normalized median ratio [4]: 93 parts of 100
- H2L2:H2L1 normalized median ratio [6]: 91 parts of 100
- H2L2:H2L1 normalized median ratio [7]: 92 parts of 100
- H2L2:H2L1 normalized median ratio [9]: 92 parts of 100
- H2L2:H2L1 normalized median ratio [10]: 94 parts of 100
- H2L2:H2L1 normalized median ratio [11]: 91 parts of 100
